{"source": "paper PMC3331935", "about": "(Developmental Cell, 2012)", "binders": {"B1": {"name": "alkaline phosphatase tagged Botch (Botch-N-AP) (natural protein, UniProt Q8R3J5 1-223, looked up)", "chain": "MKQESASQSTPPPSLSPAPSSAQPSWGDGDPQALWIFGYGSLVWKPDFAYSDSRVGFVRGYSRRFWQGDTFHRGSDKMPGRVVTLLEDREGCTWGVAYQVRGEQVNEALKYLNVREAVLGGYDTKEVTFYPQDTPDQPLTALAYVATPQNPGYLGPAPEEVIATQILACRGFSGHNLEYLLRLADFMQLCGPQAQDEHLEAIVDAVGTLLPCSYLPEQPLALT"}}, "assay_in_all_cases": "alkaline phosphatase fusion protein binding assay", "key": {"[1]": {"target": "Notch4 (UniProt P31695 21-1964)"}, "[2]": {"target": "Notch3 (UniProt Q61982 40-2318)", "sequence (Q61982 40-2318)": "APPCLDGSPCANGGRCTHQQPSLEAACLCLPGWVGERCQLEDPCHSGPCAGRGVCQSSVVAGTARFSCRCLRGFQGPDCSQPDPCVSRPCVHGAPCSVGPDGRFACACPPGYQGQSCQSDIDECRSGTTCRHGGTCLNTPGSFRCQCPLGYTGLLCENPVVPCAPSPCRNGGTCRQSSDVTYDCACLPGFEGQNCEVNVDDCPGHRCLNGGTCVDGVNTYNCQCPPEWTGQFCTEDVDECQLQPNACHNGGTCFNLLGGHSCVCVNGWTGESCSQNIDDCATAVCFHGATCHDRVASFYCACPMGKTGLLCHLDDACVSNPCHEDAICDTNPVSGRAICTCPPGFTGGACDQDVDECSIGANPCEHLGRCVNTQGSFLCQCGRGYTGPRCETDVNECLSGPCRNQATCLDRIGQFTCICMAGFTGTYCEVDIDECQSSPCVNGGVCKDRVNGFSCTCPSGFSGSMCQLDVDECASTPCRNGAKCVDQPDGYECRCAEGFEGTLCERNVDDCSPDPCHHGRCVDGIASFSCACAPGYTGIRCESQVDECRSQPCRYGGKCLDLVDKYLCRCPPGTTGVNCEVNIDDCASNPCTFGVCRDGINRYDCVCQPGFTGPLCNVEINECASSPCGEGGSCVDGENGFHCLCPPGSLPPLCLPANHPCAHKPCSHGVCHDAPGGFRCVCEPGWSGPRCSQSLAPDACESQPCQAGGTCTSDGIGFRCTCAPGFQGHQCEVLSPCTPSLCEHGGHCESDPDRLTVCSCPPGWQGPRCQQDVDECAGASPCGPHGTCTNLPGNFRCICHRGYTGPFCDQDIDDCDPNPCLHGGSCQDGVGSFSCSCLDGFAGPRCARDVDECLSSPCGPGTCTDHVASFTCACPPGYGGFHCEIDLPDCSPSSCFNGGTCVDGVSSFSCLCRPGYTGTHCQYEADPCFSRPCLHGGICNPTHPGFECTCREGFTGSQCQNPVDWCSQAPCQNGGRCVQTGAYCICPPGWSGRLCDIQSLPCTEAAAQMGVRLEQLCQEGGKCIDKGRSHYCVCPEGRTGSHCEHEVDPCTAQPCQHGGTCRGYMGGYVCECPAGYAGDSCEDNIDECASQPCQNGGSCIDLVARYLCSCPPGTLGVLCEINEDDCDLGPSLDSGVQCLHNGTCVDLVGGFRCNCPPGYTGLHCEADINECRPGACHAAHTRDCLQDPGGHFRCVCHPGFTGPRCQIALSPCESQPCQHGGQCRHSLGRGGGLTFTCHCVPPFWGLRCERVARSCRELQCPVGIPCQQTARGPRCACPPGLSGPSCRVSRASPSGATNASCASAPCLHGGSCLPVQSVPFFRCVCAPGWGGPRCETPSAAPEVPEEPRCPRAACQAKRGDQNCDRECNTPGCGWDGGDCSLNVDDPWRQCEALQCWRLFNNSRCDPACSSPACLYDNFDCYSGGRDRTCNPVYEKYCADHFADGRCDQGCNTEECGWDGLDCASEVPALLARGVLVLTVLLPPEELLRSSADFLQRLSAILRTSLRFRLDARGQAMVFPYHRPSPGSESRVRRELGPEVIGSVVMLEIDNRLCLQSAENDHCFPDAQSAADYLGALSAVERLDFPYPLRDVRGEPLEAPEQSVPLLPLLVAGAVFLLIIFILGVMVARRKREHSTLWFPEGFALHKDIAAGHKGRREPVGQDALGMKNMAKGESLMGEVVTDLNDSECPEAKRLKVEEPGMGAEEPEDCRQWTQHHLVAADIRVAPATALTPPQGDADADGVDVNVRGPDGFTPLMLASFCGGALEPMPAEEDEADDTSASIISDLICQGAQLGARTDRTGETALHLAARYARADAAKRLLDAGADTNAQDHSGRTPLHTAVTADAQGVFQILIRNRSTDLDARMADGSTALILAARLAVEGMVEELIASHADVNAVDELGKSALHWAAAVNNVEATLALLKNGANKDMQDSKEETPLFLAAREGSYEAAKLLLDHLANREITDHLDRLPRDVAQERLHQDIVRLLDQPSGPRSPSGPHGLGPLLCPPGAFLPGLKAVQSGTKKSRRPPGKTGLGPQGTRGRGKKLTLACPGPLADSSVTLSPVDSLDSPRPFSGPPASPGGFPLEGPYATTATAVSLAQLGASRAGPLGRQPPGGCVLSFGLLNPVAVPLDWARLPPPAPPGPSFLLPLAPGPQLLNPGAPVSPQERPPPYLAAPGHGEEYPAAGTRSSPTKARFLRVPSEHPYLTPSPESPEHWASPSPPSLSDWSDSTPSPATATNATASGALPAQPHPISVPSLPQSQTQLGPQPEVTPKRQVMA"}, "[3]": {"target": "Notch1, transfected into HEK293 cells and immunoprecipitated on protein G beads (UniProt Q07008 19-2531)"}, "[4]": {"target": "Notch2 (UniProt O35516 26-2473)", "sequence (O35516 26-2473)": "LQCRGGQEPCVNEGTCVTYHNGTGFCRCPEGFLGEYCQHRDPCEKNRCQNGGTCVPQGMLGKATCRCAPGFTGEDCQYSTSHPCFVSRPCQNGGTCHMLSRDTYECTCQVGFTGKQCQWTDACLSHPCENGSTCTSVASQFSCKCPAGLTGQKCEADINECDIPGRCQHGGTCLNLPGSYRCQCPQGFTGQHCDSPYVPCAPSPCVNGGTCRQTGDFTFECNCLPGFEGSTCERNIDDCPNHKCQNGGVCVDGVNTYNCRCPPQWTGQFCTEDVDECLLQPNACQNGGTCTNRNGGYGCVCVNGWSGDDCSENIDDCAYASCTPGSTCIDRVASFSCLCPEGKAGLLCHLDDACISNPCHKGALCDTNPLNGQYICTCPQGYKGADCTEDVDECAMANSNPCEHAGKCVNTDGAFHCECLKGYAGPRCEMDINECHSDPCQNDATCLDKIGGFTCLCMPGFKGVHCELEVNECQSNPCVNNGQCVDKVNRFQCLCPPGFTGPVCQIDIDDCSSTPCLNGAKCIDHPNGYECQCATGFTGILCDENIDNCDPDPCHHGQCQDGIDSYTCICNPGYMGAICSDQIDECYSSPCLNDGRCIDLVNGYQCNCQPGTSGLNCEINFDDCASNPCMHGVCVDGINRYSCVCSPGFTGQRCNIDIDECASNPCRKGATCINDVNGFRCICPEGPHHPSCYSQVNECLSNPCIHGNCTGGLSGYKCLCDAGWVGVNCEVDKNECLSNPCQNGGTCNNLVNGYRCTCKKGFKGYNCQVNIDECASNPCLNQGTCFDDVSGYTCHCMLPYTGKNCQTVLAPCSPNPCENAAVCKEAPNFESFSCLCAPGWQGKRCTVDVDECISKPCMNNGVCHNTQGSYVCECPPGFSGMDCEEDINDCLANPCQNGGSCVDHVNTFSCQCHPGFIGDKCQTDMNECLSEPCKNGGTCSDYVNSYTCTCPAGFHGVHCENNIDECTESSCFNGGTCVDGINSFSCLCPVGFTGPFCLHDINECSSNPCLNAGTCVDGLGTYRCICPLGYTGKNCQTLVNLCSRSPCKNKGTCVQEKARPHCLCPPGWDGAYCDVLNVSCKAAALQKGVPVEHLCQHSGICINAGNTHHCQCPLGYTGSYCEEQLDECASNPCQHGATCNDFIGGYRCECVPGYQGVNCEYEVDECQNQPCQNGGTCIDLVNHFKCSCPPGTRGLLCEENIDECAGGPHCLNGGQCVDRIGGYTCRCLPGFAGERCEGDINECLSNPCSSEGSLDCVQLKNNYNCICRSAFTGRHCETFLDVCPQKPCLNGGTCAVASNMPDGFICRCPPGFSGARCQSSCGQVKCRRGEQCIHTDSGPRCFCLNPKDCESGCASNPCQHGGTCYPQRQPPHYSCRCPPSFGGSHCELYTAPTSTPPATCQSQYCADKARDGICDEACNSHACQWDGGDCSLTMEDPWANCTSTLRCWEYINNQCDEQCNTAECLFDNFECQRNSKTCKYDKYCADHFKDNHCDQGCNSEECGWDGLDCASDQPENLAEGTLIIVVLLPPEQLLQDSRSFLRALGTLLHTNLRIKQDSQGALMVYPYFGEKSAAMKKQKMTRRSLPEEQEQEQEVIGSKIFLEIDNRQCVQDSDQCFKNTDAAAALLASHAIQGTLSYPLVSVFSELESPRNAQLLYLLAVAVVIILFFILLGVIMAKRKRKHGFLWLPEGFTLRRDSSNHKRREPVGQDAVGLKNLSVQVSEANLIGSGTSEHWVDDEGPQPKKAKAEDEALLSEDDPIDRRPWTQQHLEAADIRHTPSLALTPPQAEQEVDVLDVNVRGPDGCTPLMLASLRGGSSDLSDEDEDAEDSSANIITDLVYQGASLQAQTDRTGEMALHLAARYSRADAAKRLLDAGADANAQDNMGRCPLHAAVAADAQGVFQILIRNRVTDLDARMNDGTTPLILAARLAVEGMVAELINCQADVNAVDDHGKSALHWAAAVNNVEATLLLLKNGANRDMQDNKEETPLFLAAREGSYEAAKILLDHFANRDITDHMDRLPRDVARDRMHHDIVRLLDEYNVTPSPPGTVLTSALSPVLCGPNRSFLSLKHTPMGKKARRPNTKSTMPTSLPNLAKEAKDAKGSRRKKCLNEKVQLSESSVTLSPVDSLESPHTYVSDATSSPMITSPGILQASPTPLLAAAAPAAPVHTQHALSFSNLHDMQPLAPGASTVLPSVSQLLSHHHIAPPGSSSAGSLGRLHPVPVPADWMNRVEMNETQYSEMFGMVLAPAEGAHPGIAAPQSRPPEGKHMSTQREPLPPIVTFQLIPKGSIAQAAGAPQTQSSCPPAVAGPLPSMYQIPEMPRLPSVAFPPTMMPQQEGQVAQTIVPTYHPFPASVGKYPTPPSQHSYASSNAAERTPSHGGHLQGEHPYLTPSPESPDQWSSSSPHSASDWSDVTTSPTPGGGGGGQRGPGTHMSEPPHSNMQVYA"}}}
{"binder": "B1", "values": [{"measurement": "Kd", "setting": "[1]", "result": 6.3, "unit": "nM"}, {"measurement": "Kd", "setting": "[2]", "result": 3.3, "unit": "nM"}, {"measurement": "Kd", "setting": "[3]", "result": 3.3, "unit": "nM"}, {"measurement": "Kd", "setting": "[4]", "result": 8.8, "unit": "nM"}]}
